System: MS2 coat protein
Test: apparent KD of MS2 coat protein; designed switch direction (-1 OFF switch, 1 ON switch): 1; higher = weaker reporter binding
Method in brief: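 The buffer was Tris-HCl pH 7.5 with KCl, MgCl2, BSA, DTT, tRNA and Tween-20. In it, SNAP-549-labelled MS2 coat protein was titrated in doubling steps from 0.7 or 1.5 nM to 3 µM over chip-bound RNA switches transcribed by stalled E. coli RNA polymerase on Illumina chips. Apparent KD is the per-design median over clusters of curve fits to normalised fluorescence.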

[1] = input ligand: microRNA oligo, concentration not stated
[2] = Eterna round: R95, input ligand: FMN 200 uM
[3] = Eterna round: R95, input ligand: microRNA oligo, concentration not stated
[4] = Eterna round: R95, input ligand: none

| Sequence | apparent KD of MS2 coat protein (input ligand: FMN 200 uM) | apparent KD of MS2 coat protein [1] | apparent KD of MS2 coat protein (input ligand: none) | apparent KD of MS2 coat protein [2] | apparent KD of MS2 coat protein [3] | apparent KD of MS2 coat protein [4] |
| --- | --- | --- | --- | --- | --- | --- |
| UGGCUCAGACGAGGAUAUACGUGGUCACAUGAGGAUCACCCAUGUCUCGAGCUUCGGCUCGAGGCGUAGAAGGUGUCUGAGCCU [SSNG2/6-C3] (Eterna round: R96, puzzle: Same State NG 2) | 237 nM | 363 nM | 662 nM |  |  |  |
| UGGCUCAGACGAGGAUAUAUGUGAUCACAUGAGGAUCACCCAUGUCUCGAGCUUCGGCUCGAGACAUAGAAGGCGUCUGAGCCU [SSNG2/3-A3] (Eterna round: R96, puzzle: Same State NG 2) | 512 nM | 12.3 nM | 17.8 nM |  |  |  |
| UGGUAACAUGAGGAUCACCCAUGUCAAAUGAAUCGAGGAUAUGGGAAAGGAGAAGAGAAACCAGAAGGCGAAGUUG [Altered State 1-13 - Jieux - Same State 1] (puzzle: Same State 1) |  |  |  | 50.7 nM | 54.1 nM | 51.9 nM |
| UGGUAACAUGAGGAUCACCCAUGUCAAAUGAAUCUAGGAUAUGGGAAAGGAGAAGAGAAACCAGAAGGAGAGGUUG [Altered State 1-14 - Jieux - Same State 1] (puzzle: Same State 1) |  |  |  | 179 nM | 63.1 nM | 107 nM |
| UGGUACAUGGGAGGAUAUCAUGCAAACAUGAGGAUCACCCAUGUAGCCAUGGAGACAUGGGUAUAUGAGAAGGCCCAUGUACCU [JL SSNG1 3.52] (Eterna round: R96, puzzle: Same State NG 2) | 317 nM | 51.9 nM | 88.3 nM |  |  |  |
| UGGUACAUGGGAGGAUAUCAUGUAGACAUGAGGAUCACCCAUGUAGCCAUGGAGACAUGGGAGAAUGAGAAGGCCCAUGUACCU [JL SSNG1 3.54] (Eterna round: R96, puzzle: Same State NG 2) | 298 nM | 14.1 nM | 104 nM |  |  |  |
| UGGUACAUGGGAGGAUAUCUCAUGGAGACAUGAGGAUCACCCAUGUAGAUGGCCGGUAACCGGAGAGAGAAGGCCCAUGUACCU [JL SSNG1 3.67] (Eterna round: R96, puzzle: Same State NG 2) | 79.6 nM | 152 nM | 198 nM |  |  |  |
| UGGUACAUGGGAGGAUAUCUCGUGGAGACAUGAGGAUCACCCAUGUAGAUGGCCGGUAACCGGAGAGAGAAGGCCCAUGUACCU [JL SSNG1 3.68] (Eterna round: R96, puzzle: Same State NG 2) | 66.9 nM | 65.4 nM | 159 nM |  |  |  |
| UGGUACAUGGGAGGAUAUGGAGUGAUGACAUGAGGAUCACCCAUGUUAAAUAUGCCGAGAGGCAACUAGAAGGCCCAUGUACCU [JL SSNG1 3.98] (Eterna round: R96, puzzle: Same State NG 2) | 22.3 nM | 298 nM | 418 nM |  |  |  |
| UGGUACAUGGGAGGAUAUGGAGUGAUGACAUGAGGAUCACCCAUGUUAUAAAUGCCGAGAGGCAACUAGAAGGCCCAUGUACCU [JL SSNG1 3.95] (Eterna round: R96, puzzle: Same State NG 2) | 23.2 nM | 149 nM | 149 nM |  |  |  |
| UGUACCUUCACAGGAUAUCAUGCGAAAAUUGCGUGAGAAGGGUGAAUACUGUCUUUCUAAGAGCACAUGAGGAUCACCCAUGUA [SameState NG1 #59] (Eterna round: R96, puzzle: Same State NG 1) | 195 nM | 206 nM | 278 nM |  |  |  |
| UGUCCAGCCUGAGCUGGACAAAAGCAUGUACAUGAGGAUCACCCAUGUUCAUGUACAAGCUUUUUGCUCGUCUUAAC [salish99_208a_r3_033] (puzzle: Sensor for hsa-mir-208a) |  |  |  | 354 nM | 14.1 nM | 465 nM |
| UGUUAACAUGAGGAUCACCCAUGUCAAAUGAAUCGAGGAUAUGGGAAGGAAGAAGAGAAACUAGAAGGCGAAGUUG [Altered State 1-4 - Jieux - Same State 1] (puzzle: Same State 1) |  |  |  | 835 nM | 56.8 nM | 216 nM |

From the supplement of paper PMC9170038
